Patent US20150098945A1 (Daiichi Sankyo, published 2015)

Biological target: T1, human ROBO2 (pCI-hROBO2-transfected HEK293 cells) (human)
T1 chain: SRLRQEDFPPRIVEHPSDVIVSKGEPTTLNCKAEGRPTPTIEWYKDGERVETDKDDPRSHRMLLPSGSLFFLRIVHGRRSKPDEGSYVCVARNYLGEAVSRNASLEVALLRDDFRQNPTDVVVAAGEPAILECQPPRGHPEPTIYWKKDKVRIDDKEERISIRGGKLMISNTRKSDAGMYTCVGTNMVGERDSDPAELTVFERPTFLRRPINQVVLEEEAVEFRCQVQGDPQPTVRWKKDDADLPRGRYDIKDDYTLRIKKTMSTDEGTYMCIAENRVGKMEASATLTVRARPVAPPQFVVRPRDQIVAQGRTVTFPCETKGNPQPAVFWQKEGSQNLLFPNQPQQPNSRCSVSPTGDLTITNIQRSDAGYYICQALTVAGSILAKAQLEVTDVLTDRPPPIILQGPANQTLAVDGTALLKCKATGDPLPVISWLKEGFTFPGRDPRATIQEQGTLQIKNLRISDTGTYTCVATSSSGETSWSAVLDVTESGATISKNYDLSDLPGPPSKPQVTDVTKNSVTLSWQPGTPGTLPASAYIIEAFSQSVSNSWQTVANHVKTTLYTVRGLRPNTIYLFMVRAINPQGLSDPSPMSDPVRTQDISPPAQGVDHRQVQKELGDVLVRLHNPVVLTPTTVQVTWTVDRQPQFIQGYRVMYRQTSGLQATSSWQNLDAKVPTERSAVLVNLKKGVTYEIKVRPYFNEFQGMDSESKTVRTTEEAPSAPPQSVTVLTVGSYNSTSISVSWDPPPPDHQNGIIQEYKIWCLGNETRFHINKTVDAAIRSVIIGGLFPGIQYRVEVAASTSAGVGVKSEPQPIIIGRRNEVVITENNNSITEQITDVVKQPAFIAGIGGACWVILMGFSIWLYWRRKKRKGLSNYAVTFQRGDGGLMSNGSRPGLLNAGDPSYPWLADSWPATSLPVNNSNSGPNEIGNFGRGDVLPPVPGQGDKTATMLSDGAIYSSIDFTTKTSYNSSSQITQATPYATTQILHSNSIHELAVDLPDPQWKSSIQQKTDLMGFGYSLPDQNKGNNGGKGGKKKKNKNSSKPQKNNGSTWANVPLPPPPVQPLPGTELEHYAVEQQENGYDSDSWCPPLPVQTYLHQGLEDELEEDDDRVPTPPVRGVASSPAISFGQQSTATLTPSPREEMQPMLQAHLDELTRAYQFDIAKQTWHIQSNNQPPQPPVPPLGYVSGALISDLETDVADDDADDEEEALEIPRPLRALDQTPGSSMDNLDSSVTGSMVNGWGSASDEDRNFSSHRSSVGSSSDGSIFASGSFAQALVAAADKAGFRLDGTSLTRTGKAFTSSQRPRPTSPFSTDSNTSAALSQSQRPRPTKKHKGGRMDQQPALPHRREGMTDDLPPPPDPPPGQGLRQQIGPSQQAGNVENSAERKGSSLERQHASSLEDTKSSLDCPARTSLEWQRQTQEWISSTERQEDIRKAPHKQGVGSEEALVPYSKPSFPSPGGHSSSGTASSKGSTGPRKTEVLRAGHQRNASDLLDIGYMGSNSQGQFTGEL
Experiment: flow cytometry, HEK293 cells transfected with pCI-hROBO2, anti-mouse IgG FITC; control histogram IgG
Experimental: HEK293 cells were inoculated at a concentration of 1.2×10⁶ cells/dish or 1.5×10⁶ cells/dish to a 60-mm dish (manufactured by Corning Inc.) and cultured overnight in a DMEM medium containing 10% FBS at 37° C. under 5% CO₂ conditions. On the next day, the HEK293 cells were transfected with pCI-hROBO4, pCI-FLAG-hROBO1, pCI-hROBO2, or pCI-hROBO3 using FuGENE6 Transfection Reagent and further cultured overnight at 37° C. under 5% CO₂ conditions. On the next day, the expression vector-transfected cells were treated with TrypLE Express (manufactured by Life Technologies Corp.), washed with PBS containing 5% FBS, and then suspended in PBS containing 5% FBS. The obtained cell suspension was used in flow cytometry analysis.
Each cell suspension prepared in 4)-4-1 was centrifuged, and the supernatant was removed. […] Data was analyzed using Flowjo. The histogram of FITC fluorescence intensity was prepared. The antibody was determined to bind in a specific manner when the histogram of MAb1 was shifted to a stronger fluorescence intensity region compared with the histogram of the negative control Mouse IgG1 or Mouse IgG2a. […]

binding result: no binding (tested: 10 µg/mL)
B1: anti-ROBO4 mouse monoclonal antibody MAb1 (antibody, mouse IgG1, V domains shown)
VH: EVQLVESGGGLVKPGGSLKLSCAASGFTFSTYAMSWVRQTPEKRLEWVATISNGGTYTYYPDSVKGRFTISRDNAENTLYLQMSSLRSEDTAMYFCARLIYYDYLDYWGHGTTLTVSS
VL: DAVMTQTPLSLPVSLGDQASISCRSSQSLENSNGNTYLNWYFQKPGQSPQLLIYRVSNRFSGVLDRFSGSGSGTDFTLKISRVEAEDFGVYFCLQVTHVPWTFGGGTKLEIKR
notes: Mouse IgG1 (gamma1), kappa light chain, purified from hybridoma supernatant; also called parent antibody MAb1
